T1: monkey CDH6 protein (cynoCDH6 ECD-his) (monkey (cyno), UniProt A0A2K5TW62 19-615)
T1 construct: range 19-615; also called Cyno CDH6-his; not shown: his tag
T1 sequence: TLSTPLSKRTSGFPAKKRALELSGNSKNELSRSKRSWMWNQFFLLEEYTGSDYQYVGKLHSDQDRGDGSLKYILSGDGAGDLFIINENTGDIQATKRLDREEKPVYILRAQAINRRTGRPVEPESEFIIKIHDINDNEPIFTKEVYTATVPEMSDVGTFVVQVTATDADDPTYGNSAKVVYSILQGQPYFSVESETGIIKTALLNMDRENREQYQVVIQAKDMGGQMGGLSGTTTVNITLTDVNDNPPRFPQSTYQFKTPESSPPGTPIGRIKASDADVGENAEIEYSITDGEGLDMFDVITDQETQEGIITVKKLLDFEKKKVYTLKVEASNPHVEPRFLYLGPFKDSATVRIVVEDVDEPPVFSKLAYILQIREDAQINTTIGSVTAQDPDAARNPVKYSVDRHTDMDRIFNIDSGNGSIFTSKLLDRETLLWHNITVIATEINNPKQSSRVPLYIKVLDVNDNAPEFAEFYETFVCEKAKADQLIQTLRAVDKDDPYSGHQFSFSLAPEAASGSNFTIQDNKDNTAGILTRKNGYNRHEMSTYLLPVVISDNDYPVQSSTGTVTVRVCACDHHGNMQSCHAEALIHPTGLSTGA

T2: human CDH6 on tumor cells (OVCAR3 cells, PA-1 cells) (human, UniProt P55285 54-790)
T2 sequence: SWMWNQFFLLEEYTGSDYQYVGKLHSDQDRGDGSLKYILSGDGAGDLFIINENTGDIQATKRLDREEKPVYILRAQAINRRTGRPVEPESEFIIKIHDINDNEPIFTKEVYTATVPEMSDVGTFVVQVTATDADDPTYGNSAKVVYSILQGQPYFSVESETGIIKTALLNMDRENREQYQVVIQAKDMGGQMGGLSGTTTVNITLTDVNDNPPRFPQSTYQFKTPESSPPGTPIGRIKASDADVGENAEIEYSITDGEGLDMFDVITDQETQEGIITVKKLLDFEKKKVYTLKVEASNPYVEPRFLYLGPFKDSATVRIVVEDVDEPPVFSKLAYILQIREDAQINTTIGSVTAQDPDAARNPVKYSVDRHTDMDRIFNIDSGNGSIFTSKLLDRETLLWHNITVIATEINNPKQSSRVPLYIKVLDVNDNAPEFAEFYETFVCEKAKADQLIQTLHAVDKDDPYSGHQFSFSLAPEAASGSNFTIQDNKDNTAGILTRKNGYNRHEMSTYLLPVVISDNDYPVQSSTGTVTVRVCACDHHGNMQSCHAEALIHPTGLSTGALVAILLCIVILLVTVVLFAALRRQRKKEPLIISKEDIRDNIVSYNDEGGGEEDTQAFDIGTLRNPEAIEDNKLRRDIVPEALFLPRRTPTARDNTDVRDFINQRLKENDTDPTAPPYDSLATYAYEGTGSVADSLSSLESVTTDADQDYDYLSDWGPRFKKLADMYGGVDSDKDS


Experiments:
[1] = molecular target: T1, monkey CDH6 protein (cynoCDH6 ECD-his); experiment: ELISA, coated antigen
Experimental: Human CDH6 protein (hCDH6 ECD-his, conventionally synthesized), monkey CDH6 protein (cynoCDH6 ECD-his, conventionally synthesized; the cynoCDH6 ECD sequence was derived from Uniprot #A0A2K5TW62 (19-615)), and murine CDH6 protein (mCDH6 ECD-his, conventionally synthesized; the mCDH6 ECD sequence was derived from Uniprot #P97326 (19-615)) were diluted with PBS to a final concentration of 1 μg/mL, and added to a 96-well ELISA plate at 100 μL/well. The plate was incubated at 4° C. overnight. The next day, the plate was washed 3 times with a plate washing solution (PBS+0.01% (v/v) Tween 20), and a blocking buffer (PBS+0.01% (v/v) Tween 20+2% (w/w) BSA) was added for blocking at room temperature for 2 h. The blocking buffer was discarded, and the plate was washed 3 times. The chimeric antibodies were diluted with 1% BSA+PBS (purchased from Cytiva, Cat. No. SH30264.01) and added to the 96-well plate at 50 μL/well. After incubation at 37° C. for 2 h, the plate was washed 3 times with a plate washing solution. […] The plate was incubated at 37° C. for 1 h and then washed 5 times with a plate washing solution. A TMB substrate (purchased from Seracare, Cat. No. 5120-0077) was added at 50 μL/well and incubated at room temperature for 10 min, then a stop solution (1.0 N HCl) was added at 50 μL/well. OD450 nm values were read using a microplate reader (Biotek). Analysis was performed by the GraphPad Prism software, data were fitted, and EC50 values were calculated. The chimeric antibodies tested all had strong binding to the human CDH6 protein, the monkey CDH6 protein, and the murine CDH6 protein.

[2] = molecular target: T2, human CDH6 on tumor cells (OVCAR3 …); experiment: FACS, OVCAR3 cells, 4° C. arm of endocytosis assay, antibody diluted to 10 µg/mL
Experimental: OVCAR3 cells were cultured until a confluence of 90% was reached, the medium was removed by pipetting, the cells were washed once with PBS, and then treated with an enzyme-free cell dissociation solution (Versene, purchased from Gibco, Cat. No. 15040-066) and the cells were collected. The cells were washed once with PBS, counted, resuspended to 2×10⁶ cells/mL in an FACS buffer (PBS+2% FBS), and then added to two 96-well plates at 50 μL/well. The chimeric antibodies were diluted with FACS buffer (PBS+2% FBS) to 10 μg/mL and separately added to the two 96-well plates at 50 μL/well, and the plates were incubated at 4° C. for 1 h. After the cells were washed 3 times with PBS, the cells were resuspended in an FACS buffer. One 96-well plate was incubated at 4° C. for 1 h, and the other 96-well plate was incubated at 37° C. for 1 h. […] After the plates were centrifuged and washed 2 times with PBS, the cells were resuspended in an FACS buffer. The mean fluorescence intensity (MFI) was measured using FACS Canton II (BD). The chimeric antibodies tested all had good endocytic activity.

| EC50 [1] | Max OD450 [1] | MFI_4° C. [2] | Binder |
| --- | --- | --- | --- |
| 0.022 nM | 2.12 OD450 | 11100 MFI | CHI-CDH6-2 (antibody, human IgG1, kappa, V domains shown, also called chimeric antibody of murine CDH6-2) VH: EVQLQQSGPELVKPGASVRISCKASGYTFTDYYMNWVKQSHGKSLEWIGDIDPNNANTTYNQKFKGKATLTVDKSSSTAYMELRSLTSEDSAVYSCASFGYDVEWFGYWGQGTLVTVSA VL: QIVLTQSPALMSASPGEKVTMTCSASSSVSYMYWYQQKPRSSPKPWIYLTSNLASGVPARFSGSGSGTSYSLTISSMEAEDAATYYCQQWSSNPFTFGSGTKLEIKR |
| 0.026 nM | 2.78 OD450 | 11000 MFI | CHI-CDH6-9 (antibody, human IgG1, kappa, V domains shown, also called chimeric antibody of murine CDH6-9) VH: QVQLQQPGAELVKPGASVKLSCKASGYTFTGYWMHWVRQRPGQGLEWIGEINPNNGGTNCNEQFKNKATLTVDKSSSTAYMQLSSLTSEDSAVFYCTISFGNYLFFDVWGAGTTVTVSS VL: DIQMTQSPASLAASVGETITITCQASENIYFSLAWYQQKQGKSPQLLIYNANTLEDGVPSRFVGSGSGTQYSMKINSIQPEDTATYFCDQTYDFPWTFGGGTKLEIKR |
| 0.034 nM | 2.23 OD450 | 9520 MFI | CHI-CDH6-4 (antibody, human IgG1, kappa, V domains shown, also called CH1-CDH6-4; chimeric antibody of murine CDH6-4) VH: QVQLQQSGPELVKPGASVKISCKASGYAFSNFWMNWVKQRPGKGLEWIGWIYPGDGDTNYNGKFKDKATLTADKSSSTAYIQLSSLTSEDSAVYFCARLYDAWGFFDYWGQGTTLTVSS VL: QIVLTQSPAIMSASPGQKVTITCSASSSVNYMHWYQQKLGSSPKLWIYDKSKLAPGVPARFSGSGSGTSYSLTISSMEAEDAASYFCHQWSSYPPMTFGGGTKLEIKR |
| 0.023 nM | 2.54 OD450 | 10600 MFI | CHI-CDH6-1 (antibody, human IgG1, kappa, V domains shown, also called CHI-hCDH6-1; CH1-CDH6-1) VH: QVQLQQPGAELVRPGSSVKLSCKASGYTFTNYWMHWVKQRPIEGLEWIGDIDPSHSETHYTQKFKDKATLTVDKSSSTAYMQLSSLTSEDSAVYYCARGDLGRFDYWGQGTTLTVSS VL: DIVLTQSPASLAVSLGQRATISCRASESVSIHGTHLMHWYQQKSGQPPKLLIYAASNLESGVPARFSGSGSETDFTFNIHPVEEEDAATYFCQQSFEDPWTFGGGTKLEIKR |
| 0.026 nM | 2.26 OD450 | 10100 MFI | CHI-CDH6-10 (antibody, human IgG1, kappa, V domains shown, also called chimeric antibody of murine CDH6-10) VH: QVQLQQPGAELVKPGTSVKMSCKASGYTFTSDWIAWVKQRPGQGLEWIGDIYPGSGRTHNNEKFNFKATLTVDTSSNTAYMQLSSLTSEDSAVYFCARPMLGRFDYWGQGTTLTVSS VL: DIVLTQSPASLAVSLGQRATISCRASESVSIHGTHLMHWYQQKPGQPPKLLIYAASNLESGVPARFSGSGSETDFTLNIHPVEEEDAATYFCQQSFEDPFTFGSGTKLEIKR |
| 0.046 nM | 1.96 OD450 | 8810 MFI | CHI-CDH6-5 (antibody, human IgG1, kappa, V domains shown, also called CH1-CDH6-5; chimeric antibody of murine CDH6-5) VH: QVQLQQSGAELVRPGTSVKMSCKAAEYTFTNYWIGWVKQRPGHGLEWIGDLYPGGDHANYNEKFEGKATLTADTSSSTAYMQLSSLTSEDSAIYYCARGMLTTGFDSWGQGTTLTVSS VL: DIVMSQSPSSLAVSAGEKVTMSCKSSQSLFNSRTRKNYLAWYQQKPGQSPKLLIYWASTRESGVPDRFTGSGSGTDFTLTISSVQAEDLAVYYCKQSYYLRTFGGGTKLEIKR |
| 0.032 nM | 2.32 OD450 | 10400 MFI | CHI-CDH6-11 (antibody, human IgG1, kappa, V domains shown, also called chimeric antibody of murine CDH6-11) VH: QIQLQQSGPELVKPGASVRISCKASGYTFTDYYITWVKLRPGQGLEWIGWIYPGSVNIKYNEKFKGKATLTVDTSSSTAYMQLNSLTSEDSAVYFCARGGYSWFPYWGQGTLVTVSA VL: NIVMTQSPKSMSMSVGERVTLSCKASENVHTYVSWYQQKPEQSPKLLFYGASTRNTGVPDRFTGSGSATDFTLTISSVQAEDLADYYCGQSYSYPYTFGSGTKLEIKR |
| 0.03 nM | 2.24 OD450 | 9930 MFI | CHI-CDH6-6 (antibody, human IgG1, kappa, V domains shown, also called CHI-hCDH6-6; chimeric antibody of murine CDH6-6) VH: EVQLQQSGPELVKPGDSVKMSCKASGYTFTDYYMAWVRQSHRKSLEWIGYIFPNSGGTDYSQKFKGKATLTVDKSSSTVYMELHSLTSEDSAVYYCARELGADYGDYYAMDHWGQGTSVSVSS VL: DIQMTQSPASLSASVGETVTITCRASENIDSYLAWYQQKQGKSPQLLVYSATLLADGVPSRFSGSGSGTQYSLKINSLKSEDVARYYCQHYYRTPPTFGSGTKLEIKR |
| 0.178 nM | 2.05 OD450 | 5580 MFI | CHI-CDH6-7 (antibody, human IgG1, kappa, V domains shown, also called CH1-CDH6-7; chimeric antibody of murine CDH6-7) VH: EVKLVESGGGLVKPGGSLKVSCAASGFTFSDHGMAWVRQAPGKGPEWVAFISNLAYSIYYADTVTGRFTISRENAKNTLYLEMSSLRSEDTAMYYCARVYVKWYFDVWGAGTTVTVSS VL: DIQMTQSPASLSASVGETVTITCRASENIDSYLAWYQQKQGKSPQLLVFAATLLADGVPSRFSGSGSGTQYSLKINSLQSEDVARYYCQHYYSTPLTFGAGTKLELKR |
| 0.026 nM | 2.12 OD450 | 10100 MFI | CHI-CDH6-8 (antibody, human IgG1, kappa, V domains shown, also called chimeric antibody of murine CDH6-8) VH: EVQLQQSGPELVKPGDSVKMSCKASGYTFTDYYMAWIKQNHGKSLEWIGYIYPNNGGTDYNQKFRGKATLTVDKSSSAAYMELHSLTSEDSAVYYCAREIGTLYGDYYAMDYWGQGTSVTVSS VL: DIQMTQSPASLSASVGETVTITCRASENIDSYLAWYQQKQGKSPQLLVYTATLLADGVPSRFSGSGSGTQYSLKINSLQSEDVARYYCQHYYSTPPTFGSGTKLEIKR |
| 0.041 nM | 2.64 OD450 | 9280 MFI | CHI-CDH6-3 (antibody, human IgG1, kappa, V domains shown, also called CH1-CDH6-3; chimeric antibody of murine CDH6-3) VH: QVQLQQPGAELVKPGASVKLSCKASGYTFTSYWIHWVKQRPGQGLEWIGEINPSNGVTNCNENFKSKATLTVDKSSSTAYMQLSSLTSEDSAVYYCTIPNLLWWYFDVWGAGTTVTVSS VL: DIQMTQSPASLSVSVGETVTITCRASENIYSNLAWYQQKQGKSPQLLVYEATNLADGVPSRFSGSGSGTQYSLKINSLQSEDFGSYYCQHFWGTLWTFGGGTKLEIKR |
